T1: Boi1 SH3 (BOI1_YEAST), P38041
T1 chain: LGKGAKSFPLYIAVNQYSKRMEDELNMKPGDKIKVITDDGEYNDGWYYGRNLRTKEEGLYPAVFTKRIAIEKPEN

T2: Boi2 SH3 (BOI2_YEAST), P39969
T2 chain: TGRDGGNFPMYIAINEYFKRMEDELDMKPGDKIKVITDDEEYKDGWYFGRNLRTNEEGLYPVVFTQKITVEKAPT

T3: Rvs167 SH3 (RV167_YEAST), P39743
T3 chain: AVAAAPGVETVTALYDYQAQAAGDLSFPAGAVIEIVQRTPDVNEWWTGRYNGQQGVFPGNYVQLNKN

T4: Yfr024 SH3 (LSB3_YEAST), P43603
T4 chain: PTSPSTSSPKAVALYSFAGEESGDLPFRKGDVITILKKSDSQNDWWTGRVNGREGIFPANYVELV

T5: Yhr016c SH3 (YSC84_YEAST), P32793
T5 chain: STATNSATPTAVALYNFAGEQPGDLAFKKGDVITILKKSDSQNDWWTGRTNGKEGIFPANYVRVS


Experiments:
Assay in all cases: SPOT array
[1] = target: T1, Boi1 SH3 (BOI1_YEAST), P38041
[2] = target: T2, Boi2 SH3 (BOI2_YEAST), P39969
[3] = target: T3, Rvs167 SH3 (RV167_YEAST), P39743
[4] = target: T4, Yfr024 SH3 (LSB3_YEAST), P43603
[5] = target: T5, Yhr016c SH3 (YSC84_YEAST), P32793

Binder | normalised SPOT signal, Boehringer light units (BLU); mean over the file's lines of this peptide [1] | normalised SPOT signal, Boehringer light units (BLU); mean over the file's lines of this peptide [2] | normalised SPOT signal, Boehringer light units (BLU); mean over the file's lines of this peptide [3] | normalised SPOT signal, Boehringer light units (BLU); mean over the file's lines of this peptide [4] | normalised SPOT signal, Boehringer light units (BLU); mean over the file's lines of this peptide [5]
DYQPLSPPRELDPD [YAR014C 249-262] | 122 | 8.8 | 322 | 506 | 313
EAAPQLPSRSSAAP [YCR088W 505-518] | 102 | 20.3 | 23100 | 55000 | 93000
EANPDNPKKLDLKA [YER166W 783-796] | 79.1 | 7.6 | 45.6 | 257 | 247
EAPPAKPSRSDIID [YOR066W 225-238] | 70.5 | 54.9 | 31.9 | 3400 | 2010
ESHPELPNKDVKLD [YGL125W 158-171] | 128 | 22.1 | 25.4 | 139 | 75.4
EDTPDLPQKTGIRK [YJR137C 1229-1242] | 24.7 | 18 | 14.6 | 5620 | 100
EEHPPLPARRKSEE [YOR042W 80-93] | 619 | 53.3 | 26300 | 31200 | 72200
EEHPSSPGKKQITY [YLR238W 11-24] | 84 | 17.6 | 5.7 | 44.3 | 24.5
EEKPLLPTRPNKAE [YPR171W 203-216] | 0 | 54.8 | 6410 | 46300 | 62400
EESPVKPLKITQKA [YLL021W 583-596] | 59.6 | 40.1 | 51.1 | 290 | 51.3
EFSPTYPSKLFVPR [YJR110W 189-202] | 53.2 | 33.3 | 69.9 | 796 | 143
EFIPPDPTKVTEFE [YNL025C 151-164] | 98 | 39.5 | 16.4 | 26.8 | 53.3
EGKPLFPGKDHVHQ [YLR113W 212-225] | 89.1 | 11 | 38.5 | 5.2 | 91.1
EHKPVSPDKIGTFT [YDR443C 81-94] | 58.8 | 21.4 | 59.1 | 60.4 | 181
EIAPLIPKKPALRK [YDR080W 597-610] | 110 | 90.8 | 80 | 5120 | 0
EIAPSLPSRNSIPA [YCR088W 471-484] | 92.9 | 51.6 | 18700 | 35400 | 40900
EILPQAPAKKVFES [YDR444W 379-392] | 34.7 | 21.5 | 65.2 | 244 | 12.5
EILPVKPTKKSSKK [YCL014W 808-821] | 364 | 21.3 | 63.9 | 2720 | 34.7
EIPPPLPPKIMVHS [YIL156W 528-541] | 121 | 15.5 | 135 | 41400 | 14500
EKFPKLPHKLVHML [YKR024C 336-349] | 56.5 | 83.5 | 32.9 | 7910 | 139
EKGPRMPSRGRPRP [YPR171W 144-157] | 394 | 161 | 72.6 | 5120 | 1840
EKLPAIPRKFIVTE [YMR296C 278-291] | 26.8 | 17.5 | 41.4 | 667 | 208

— publication PMC314469, “Protein Interaction Networks by Proteome Peptide Scanning” (PLoS Biology, 2004)
